Reference: publication PMC3829318

Key:
[1] = Golgi processing of remaining glycopeptides, LC-ESI-MS, N. benthamiana; conditions: glycan lost; control: wild-type KOR1-Fc-GFP
[2] = anti-KOR1 immunoblot of Sf21 culture medium; conditions: glycan lost; control: rKOR1 WT
[3] = transient expression in N. benthamiana leaves; conditions: glycan lost; control: wild-type KOR1-Fc-GFP
[4] = CMC hydrolysis after non-denaturing Endo H
[5] = CMC hydrolysis after non-denaturing deglycosylation; conditions: glycan lost; control: untreated rKOR1 WT
[6] = glycan lost, control: Endo H-digested rKOR1 WT

B1: KORRIGAN1 (KOR1): N324Q/N345Q (protein)
parent chain: MYGRDPWGGPLEINTADSATDDDRSRNLNDLDRAALSRPLDETQQSWLLGPTEQKKKKYVDLGCIIVSRKIFVWTVGTLVAAALLAGFITLIVKTVPRHHPKTPPPDNYTIALHKALKFFNAQKSGKLPKHNNVSWRGNSGLQDGKGETGSFYKDLVGGYYDAGDAIKFNFPMAYAMTMLSWSVIEYSAKYEAAGELTHVKELIKWGTDYFLKTFNSTADSIDDLVSQVGSGNTDDGNTDPNDHYCWMRPEDMDYKRPVTTCNGGCSDLAAEMAAALASASIVFKDNKEYSKKLVHGAKVVYQFGRTRRGRYSAGTAESSKFYNSSMYWDEFIWGGAWMYYATGNVTYLNLITQPTMAKHAGAFWGGPYYGVFSWDNKLAGAQLLLSRLRLFLSPGYPYEEILRTFHNQTSIVMCSYLPIFNKFNRTNGGLIELNHGAPQPLQYSVNAAFLATLYSDYLDAADTPGWYCGPNFYSTSVLRDFARSQIDYILGKNPRKMSYVVGFGTKYPRHVHHRGASIPKNKVKYNCKGGWKWRDSKKPNPNTIEGAMVAGPDKRDGYRDVRMNYNYTEPTLAGNAGLVAALVALSGEEEATGKIDKNTIFSAVPPLFPTPPPPPAPWKP
[1]
  localisation_or_trafficking: no change
[2]
  expression_or_secretion: decreases
[3]
  expression_or_secretion: no change

B2: KORRIGAN1 (KOR1): N216Q + Endo H (protein)
parent chain: B1 parent chain
[4]; [6]
  enzymatic_activity: no change

B3: KORRIGAN1 (KOR1): PNGase F (protein)
parent chain: B1 parent chain
[5]
  enzymatic_activity, percent_of_wt: decreases, ∼50 vs 100

B4: KORRIGAN1 (KOR1): N324Q + Endo H (protein)
parent chain: B1 parent chain
[4]; [6]
  enzymatic_activity: no change

B5: KORRIGAN1 (KOR1): N425Q + Endo H (protein)
parent chain: B1 parent chain
[4]; [6]
  enzymatic_activity: no change

B6: KORRIGAN1 (KOR1): kifunensine (rKOR1 KIF) + Endo H (protein)
parent chain: B1 parent chain
[4]; glycan changed form, control: Endo H-treated rKOR1 WT
  enzymatic_activity: decreases

B7: KORRIGAN1 (KOR1): Endo H (protein)
parent chain: B1 parent chain
[5]
  enzymatic_activity, percent_of_wt: decreases, loss of 20–30% vs 100

B8: KORRIGAN1 (KOR1): N345Q + Endo H (protein)
parent chain: B1 parent chain
[4]; [6]
  enzymatic_activity: no change

B9: KORRIGAN1 (KOR1): N408Q + Endo H (protein)
parent chain: B1 parent chain
[4]; [6]
  enzymatic_activity: no change
